Assay: soluble fraction after stress (log2 fold change); higher = more stays soluble; pooled small domains, quantitative proteomics
Settings: stress: pH 4
How it was run: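 After pH 4 stress, pooled custom libraries of small protein domains were quantified with high-throughput quantitative proteomics. Aggregation propensity is taken from the fold change in each domain's soluble amount following the acid stress. The scale is log2, where higher values mean more stayed soluble.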

Point of comparison: “HMDSSSYSAKVGTLIQETRQARGMTQAQLAQALGTSQSAINRIEKGGQNISLDMLNRISEVLSSQIVTLNP”, “soluble fraction (log2)” value -0.255. Against it:
- HMAPGASEVPDLTSLPAREALLRLTKLGLLPEMEGTGRLVRQQPAAGTRVPKGSKVHLVFEPG — higher, 0.0438
- HMNIGEKIKTLRENNNISIEELAEKINDSIENILKYENNELEPTLDKKLALSIALGVTLSDLS — lower, -0.975
- HMSVSVNAPMPGNILDVRAKTGESIQKGQVIVILEAMKMENEIMAPQDGKISSINTSKGSTVNSGDLLFTM — lower, -0.693
- HMEQQEFIVPHDSEGQRLDLFLVSVLGTHSRSQIRKLIVNGHVKLENRAPRPNLPVRAGESVVVSMPEPT — within 0.2 log units, -0.315
- HMPSARELLATNIVRLRKEKGWSQEDLALEAGLHRTFVAHVERHARNISLDNIERLANALQVNVHILLL — lower, -1.26
- HMSQEILSNQSIKDMIELGFEEQTIIDKIQTSTSDFDTTIEELKALKQLGASPTILSAMIKSIKK — lower, -1.97
- HMDHVEDRMVLEVVLKKLTEEERRIVMLHAVSGLKHREIAKALDIPLSTVLSKYKRTLKKLEAYLMEME — lower, -0.936
- HMKPDAAKREQLIDIALRLFSQQGIARTSLNAIAREAGVTPAMLHYYFNSREQLLDVMIEERFL — lower, -1.45
- HMSQVLVRINQDLNIRSGPGAQYDIIAVYRSGAIASVIGTYNNWYKVNFELDSKSYTGWINGTFTSR — within 0.2 log units, -0.245
- HMSNTIFGINGPVVTVASKDFSMQEMVYVGNERLVGEVISIDDDLTTIQVYEVTTGLKPGEPVVGTGSAM — lower, -1.64
- HMGTSGLTIPRFVSLASGTVHMRAGPGVRYPITWIYKRLGTPLMVMAEHEFWRKVRDAEGTEGWMHRSLLS — higher, -0.00785
- HMRDSLVGLEGVVVREVDDETLAGKVQIGSMEWSARSESGRIPAGRRVVVLRAEGVHIVVKEV — within 0.2 log units, -0.121
- HMTPEGAYTVSEIVKVINSFADEYKVPFTMHVSGYKYEEIAQQLGLPIGTVKSRIFFARKRLQELLN — lower, -1.03
- HMNLVGGKINSLMTTKNVTIQDLSERSGLTVSQIELLLSGDKVPSLAVLIKIARGLGVRVGTFL — within 0.2 log units, -0.156
- HMRLMLITPTEFDEAAEIADNLKDRRAVLMNVEKTDNETARRLIDFLSGVVYALGGKIMRISAQAYVLT — within 0.2 log units, -0.228
- HMGTHPGIDSGIISDILALKKELPTRSAAKIITMLTLAGKMEENSIHVKTVNRILYQYGYTRDTLS — within 0.2 log units, -0.222
- HMQVSDLSAIDSLIDKVLSEQQAAVQDFRSGQGKAMGFLIGKVMQASDGKANPKVIRELMGKKLA — higher, -0.0313
- HMLLKIRPDLDGNEIMKLLNIAAGPNVGKAYEHLLELRLEHGPLGKERAEQELMNWWSARSQ — within 0.2 log units, -0.371
- HMEEPEYELLRQAVLALPEKYRLPIHLYYYEEYSVREIAEILQRKESAVQTQLQRGREKIRRSLTEKGVS — lower, -0.941
- HMGDLAAAGNHTLEVMGFPQHPDESYRHFVGNGIPKLIERMLPAGHDKETEQKAYDIFMEYYSAHK — within 0.2 log units, -0.439
- HMKPATSITFIPSERPDLVEQLSKITFDKKDSLYENYINLNWLTFEAISVYMREGDIIGFST — within 0.2 log units, -0.305
- HMRIQLNFSDQLLDDVMSEALKHIDRKSQEHHIEKQMDDEFMLVYIDARLIIQVIVNIINNAIKY — lower, -0.912
- HMAGQWQQDQNGWKYKTDNGDHMKNTWYQDSDSRWYYFGPDGYMKSSTMTPDGYVVGSDGAWIE — lower, -1.63
- HMTDRINIGDVVTIISKDREDSQIVYMRYHKGKLSILGELILNKTKNDTVDFKGRTYDIATIEKS — within 0.2 log units, -0.228
- HMHGSTAVVPQIKNMPYSEASVRLGANGLAIEINDSVYDRDMPPGTVIESWPKAGAVVKQGRQVYVTVTA — higher, 0.218
- HMPKSVRQSFVYSPMYRDVEYLADFLRNNNKDDSSVSASGDKLVYYGTADEIARVKSVLKGVDV — lower, -0.51
- HMKMVSTPTGTRISLTQVKEFISNASFDDMKEILLEVLAWFKAHNLGNPFNYNRAFEFIVAH — within 0.2 log units, -0.302
- HMRGPVRLDLPVSGLSRSSGPALAKILQAVPGVHKAHVNVRSGKATLEYDPARAKVTDFVEVIRSAGFGT — within 0.2 log units, -0.072
- HMNQIDEATAATITTLNFLNTNSEFKIPVGDTATRPGTPAIGMMRFNSENDKAEIYVADFDGDGNPGWINL — lower, -1.52
- HMSADDLVSRTQAIVAELKDLEGPLLPILHSVQEAFGHVPDEVKPVIAEALNLSRAEVHGVVSFYHDFRAH — lower, -0.571
- HMGYDDVIVINGKNETYGFPTKVEDDPVLSLVIKGDRSIDYAEERRLFYVAMTRTKNRVFFVAP — lower, -0.803
- HMSPPPRPSHPEAAGLRHLAFEVDNIDDAVRHLDRLGVPHEPVRTDEYTGRRFLFFTDPDRLPLELYEK — lower, -0.572
- HMEARNDWAQQSRADAEFGGEKLDENLAVAKKAVEALASPELKTLLEQSGLGNHPEIIRLFYRAGRSLS — within 0.2 log units, -0.122
- HMNTLRFPEGTPEKDRMSIILASYNSGIGHVNDARRLARLNGEDPNSWEVVARYLQLKAQPEYYESEAVK — lower, -0.548
- HMQSYSTIIGVIELRLSGIGYRTTKARYGIGNSTVTLIMNRFKETGFTLDDLKTMEPTKVEALFYPP — within 0.2 log units, -0.229
- HMNKIDVVEVDMSKPYEDMTVTELQNVILGKLASNGPVTDQMKKDVAENIYHDSLVNWAKSF — within 0.2 log units, -0.303
- HMQDNLKKYMDKLSQRDAELIVYKYLWNMSEKEISEMFHIKQEQVHVYVGRAKKRLFKIIKKEME — higher, 0.111
- HMSAPNPGQMHSWTDTQGRTLQATFIKADATTVTLNWNGRIVPIPLANLNAASQKLARELASAS — within 0.2 log units, -0.0969
- HMNLNLDITTYKLEELENLLKLKPNYKQEQIFEAKTKMEKFILKSNLNESKREELYIFLDNIYNKLTNNLL — lower, -1.34
- HMSLGPNAYGKPATALNILRETVMGKELFDHAFKTYSKRWMFKHPSPEDFFRTMEDASAVDLDWFWR — higher, 0.22
- HMEAVIGGIYRHYKGNNYKLLAVATHSETLEKMAVYQALYGEMGIWVRPLAMFMETIEKDGQSLKRFE — lower, -0.932
- HMSSARKVTVRGVRELPGIFMEKAEILDDGVRFFYRGEMEKLIGALQGLPIRDLTITEPDLEEVFLHFY — lower, -1.43
- HMSAERFDFRIGPELAGKRFDQALAEALPQFSRSRLSTWIKDGRATLNGATMRPKDSVHAGDTVVVNAE — higher, 0.255
- HMDTAEQNWRLRGKLVTLGLNARQIRMALASHAPRYLEDNIAVVERDLAAGKVRNLPAYLLAALREDYRP — within 0.2 log units, -0.147
- HMDTVEALTEQLKKLDKRGEGQIPAPEFKQYMMNMGGKMTAEELDEMMKVADPGKEGVVNIAEFADAL — within 0.2 log units, -0.229
- HMKHRFVVGEVLSIGKLQHEITLKTAQGERKFQLDKQDLPASIQDGAKVRAELNEAGRVIDVHPLK — within 0.2 log units, -0.178
- HMEIYELTDQEQRVLEFIGEGMTNREIAKNMFLAEKTVKNYVSSLLRKLGLERRTQAAAMAVRLSV — lower, -0.988
- HMQFLGKVTVTHARQANLRAQPSMDAAIVGKVNPGEVYNVVSIPKTSWYEIQLQNGKTVFIAAGMVSFRM — higher, 0.209
- HMNLFNEIEKQYQALQDRSSASLVDLRHLLLDIEELVNSPDYQALAPDQRSTLQAARKELMRRIQKQEN — within 0.2 log units, -0.193
- HMKQHPTIDLQIGQKLHYKEDVFEVTRFAKDKNGQDMVILKDPSIGSGIEIPWYRSKLEEIIESGQYKIT — within 0.2 log units, -0.113
- HMVETVQVVGAGQDIMPGSRINYSSLHYITVPRSYFHEDMFAKNNLVVGRIARAYVAKGEPLLAASLMPK — higher, 0.17
- HMPKPMKATKITLQQEPRIRVDFTYDPLKVQQIKTISGARWSKSLKAWHIPYTKEAFNQLKKLFPNVEIEV — higher, 0.22
- HMGRPQISDELRNAIIEVAKDNRDWGYIRIQGQLKYLGYRVSTATIGKVLKKAGLEPQPDRRRK — lower, -0.667
- HMLMKKTITHEIELLEFLKQIFPQSSTNKLRKMLSNGRIKINSEIVHKAKYKLQENDTFELLDNPT — higher, -0.0208
- HMVEGVSLVEIYVDENSKYNGKLLSEIPKKENTLVIMIQRGEQVIIPHGNIRLESGDMLVVSKTEI — lower, -1.38
- HMKGSYTVKSGDNLWSIARKFYGGSGSTWTKIYSANKSTIESTARRYGRSSSDNGHWIYPGTVLVIP — higher, 0.405
- HMKMQIGEIIRKYRKSNHMTQEEMAERLGVSAPAVNKWENGNSMPDIMLLAPITRLLGISLDELLSFE — lower, -0.581
- HMTTRLLTPRQRQVFDIAIREGFYDSPRRISLTELADLLGVAKSTLSVQLQRVESTIVHTFSEEIRRRS — within 0.2 log units, -0.176
- HMGHEEPITFDRLPQAAQTFLKTHFDTLTVAYIVADRKFMGVEYEVKYTDRTEVDFRSDGQWESV — within 0.2 log units, -0.443
- HMDFYIVLGVDRAASVSDVKRAYRRLARKYHPDINPGDREAEAFFLRVTEAYETLIDPDRRQDYDVNG — lower, -1.31
- HMWNTADDIKEAIWKLIQSEDPKKPYSDLKISQLLLEKEMKISRRTVAKYRKEMGILGTYSRK — higher, 0.23
- HMFSAASSQISSYVRSVVDKAQTYEQAYEILAKNPLGFKLDALEDELFRIIANAEILGADDDE — lower, -1.24
- HMDAKSRFQEWVQAETGITPTYRIIGDSGPDHAKTFIAQVLLGERVVGEGVGSSKRAAEQAAAQAALAAM — within 0.2 log units, -0.346
- HMKVQLGMNTREVRGIMGKPFSEDTFVEGEKRVDVLHYKEAVRVKTQGFILTTSLRFENDSLTAI — lower, -1.02
- HMSIYQYFNISEINSIDDLKKQYFKLAKKYHPDAGGDKVSFQELQNEYEQLTKKILSGAELNADELKTE — within 0.2 log units, -0.163
- HMTASVTDAMFELIDELPKLGKTSFRQLTADLVDRLQVVVTFLAVLELYKQGHVELDQSERFGDITVVWTG — lower, -1.11
- HMGQMGHAVVAKTDLAVGTPLTRDLVAVREVPVEWLHSSAITPEQFERAAGAVLAQPARGGEPLVWSQLEE — within 0.2 log units, -0.201
- HMLGVKKFGGEAVIAGNIILRQRGTKWITGSNVGIGKDHTLFAKIEGYVVFERMRGRDGQQQISIYP — within 0.2 log units, -0.192
- HMATTTEPTSPPAATASLEAKINWLFLIFRNKKTVTASEQKFHAEDASTVVGKETLTDDGTTMTKGETAAG — within 0.2 log units, -0.437
- HMKTTSYAKLLRFLRTERDLSQITVAKQLGLSRASYLALEHGSRELSLSEAVKVTTLYGIRIDDLIVNH — lower, -0.899
- HMKTKTAPPDSIPPAWLKESATLRPDLNQAQIKASAEVFLDHHRAKGTTLADWRPAWRNWIRRERA — higher, 0.0552
- HMRFANGHLIWDTIIELRNAERRINRRALADLTGLKPGVVDDHVERWIEKDQLRRAGNGELEVV — within 0.2 log units, -0.24
- HMKSNIGENIRQLREKREMSVERVARMLEVKPATVIGWESGRELPEPAELGLLAKLFDVTVEELN — within 0.2 log units, -0.0738
- HMDKEVMEAVLRILYDDDFNPDQRDAILYFFVQELDQRTISEITGAKIGTVKKRIHDGLKKLRQKLAKEDL — lower, -1.03
- HMFSNATISGLKAGALVRVYNISGVAVSTLTADAEGKVSVDLNNLPKGVYILSTPSKSFKVLN — higher, 0.176

— the domain aggregation screens of Martell et al. (2025)
